{
  "source": "patent US20070141066A1",
  "about": "“Method for Diagnosing, Prognosing and Treating Glioma” (Genentech, Inc., priority 2005, published 2007)",
  "system": "neural stem cell lines derived from fetal human brain",
  "test": "Expression signature (35 signature genes) of neural stem cell lines after BDNF treatment and withdrawal",
  "assay_type": "cell-based",
  "conditions": "two neural stem cell lines",
  "method": "Signal intensity values from Microarray Analysis Suite version were utilized with a scaling factor of 500 for all analysis of microarray data. K-means clustering and agglomerative clustering were performed with the use of Spotfire Decision Site software version 7.3 using Pearson correlation as the similarity measure. For each gene, data was normalized into Z scores prior to clustering. The 35 signature genes used for tumor classification represent the most robust markers for each of three tumor subsets in the MDA survival sample set. Markers of each subset are identified as follows: Each of the 76 samples is assigned to one of three groups based on k-means clustering of expression of the 108 genes most strongly correlated with survival. Using a p value cutoff of 1×10^−4, t tests were utilized to identify all genes whose expression differed between samples in each subclass compared to tumors of other subclasses (see Table A, GDM). For each comparison, we then rank-ordered the 500 probe sets with the smallest p values, by fold change. […] The final 35 signature genes contain 15 PN, 15 Mes, and 5 Prolif markers. […] For statistical comparisons of data presented in FIG. 4 F-I and FIG. 7, log-transformed data was analyzed via t tests corrected for multiple group comparisons. […]",
  "data": [
    {"molecule": "BDNF: the neurotrophic factor BDNF (protein, UniProt P23560 19-247, looked up) Neurotrophic factor BDNF …: APMKEANIRGQGGLAYPGVRTHGTLESVNGPKAGSRGLTSLADTFEHVIEELLDEDQKVRPNEENNKDADLYTSRVMLSSQVPLEPPLLFLLEEYKNYLDAANMSMRVRRHSDPARRGELSVCDSISEWVTAADKKTAVDMSGGTVTVLEKVPVSKGQLKQYFYETKCNPMGYTKEGCRGIDKRHWNSQCRTTQSYVRALTMDSKKRIGWRFIRIDTSCVCTLTIKRGR", "values": [
      {"measurement": "shift of expression signature subclass", "result": "shifted signature subclass from the PN to the Mes class"}
    ]}
  ]
}
